Experimental data from patent US9505841B2, “Use of an anti-Ang2 antibody” (Samsung Electronics Co., Ltd., priority 2013, dated 2016).

Experiments:
[1] = system: Tie2 receptor; experiment: Internalization of Tie2 receptor in HUVEC (confocal microscopy); type: cell-based, human
Description: HUVEC (ATCC) cells (1×10^6) were cultured in m-slide 8 wells (#80826, ibidi) for 24 hours and then subjected to serum starvation in serum-free EBM-2 media (Lonza) for 3 hours. 200 ng/ml of Ang1 (R&D systems) or 2ug/ml of Ang2 (R&D systems) and 10 ug/ml of antibody 10D6 were each diluted in EBM-2 media and then, the cells were treated with them and incubated according to time specified in the picture. The cells fixed with 4% formaldehyde (Sigma) was dyed first with an anti-Tie2 antibody (R&D systems) and then subjected to a secondary dye with an anti-goat Alexa 555 antibody (red, Life technology) and an anti-mouse Alexa 488 antibody (green, Life technology). The dyed cells were treated with Vectashield mounting medium with DAPI (Vector labs) and then observed using a confocal laser scanning microscopy (Carl Zeiss).

[2] = system: Vascular endothelial cells (HUVEC); experiment: BrdU proliferation assay, vascular endothelial cells; type: cell-based, human; conditions: 2 ug/ml Ang2 with 10 ug/ml antibody; 3 days
Description: The measurement assay of the proliferation of vascular and lymphatic endothelial cells was conducted using a BrdU assay kit (Roche) Cell. Vascular endothelial cells of P3˜P8 (HUVEC, ATCC) or lymphatic endothelial cells (Lonza) were placed in a collagen-coated 96-well plate (BD Bioscience) at 3000˜5000 cells/well and cultured in EGM-2 media (Lonza) for 16˜24 hours. A mixture of 2 ug/ml of Ang2 (R&D systems) and 10 ug/ml of antibody 10D6 in 2% EBM media was added to the 96-well plate washed with PBS, which was then cultured for 3 days.
For efficiency comparison, an anti-Ang2 antibody (MEDI: Medlmmune Co.) was used. For a BrdU assay, 10 ul of BrdU solution diluted at 1:1,000 was added to each well of the plate to label the cells. The cells were cultured for 1 hour and after the removal of the culture solution, 100 ul of Fixation/Denaturation solution (Roche) was added to each well and then, removed after 30-min wait. An anti-BrdU antibody (Roche) conjugated with peroxidase was diluted in a dilution buffer (Roche) at 1:100, added to each well to react for 1 hour and then, washed four times using a washing buffer (Roche). 100 ul of a TMB substrate was added thereto to react and then, absorption was measured at 450 nm using a Microplate reader (Perkin Elmer).

[3] = system: Akt, eNOS and 42/44; experiment: Phosphorylation of Tie2 downstream signaling proteins in HUVEC (immunoblot); type: cell-based, human
Description: To see whether antibody 10D6 induces the activation of the downstream signaling of a Tie2 receptor as well as the activation of the Tie2 receptor itself, the phosphorylation degrees of proteins participating in the downstream signaling when Ang2 alone or Ang2 and antibody 10D6 was treated were tested using immune blotting.
Specifically, HUVEC (ATCC) cells (1×10^6) were cultured in a 6-well culture dish using EGM-2 (Lonza) media at 37° C. and when they reached 80˜90% confluency, the media were replaced with serum-free media (Lonza) and cultured at 37° C. for 6 to 16 hours. The dish was washed once with PBS, and the cultured cells were treated with a mixture prepared by mixing 60 nM of the Ang2 antibody (10D6) with 40 nM of Ang2 protein (R&D systems) and letting them stand for 20 min. and further cultured for 30 min. For comparison, groups in which Ang1 (R&D systems) 4 nM, Ang2 (R&D systems) 40 nM, and Ang2 (R&D systems) 40 nM+anti-Ang2 antibody (Regeneron) 60 nM were treated respectively were prepared.
The cells were washed using PBS, treated with a lysis buffer (Roche), collected to a tube to be dissolved at 4° C. for 30 min. and then, centrifuged at 13,000 rpm for 15 min. to measure a supernatant. A sample buffer (Invitrogen) mixed with a reducing agent was added to 25 ug of a cell lysate, which was boiled at 95° C. for 5 min., and then, applied to NuPAGE Novex 4-12% Bis-Tris gel (Invitrogen) and transferred onto Nitrocellulose membrane (Invitrogen).
To see the presence of the phosphorylation of Akt, eNOS and 42/44 involved in the downstream signaling, the blots were blocked with PBST mixed with 3% (v/v) skim milk (Sigma) for 30 min. and then treated with an anti pAkt antibody, anti p-eNOS antibody, and anti p-42/44 antibody (all of them; cell signaling). The blots were reacted in a stripping buffer (Thermo) for 15 min. and then blocked again to identify Akt, eNOS, and 42/44 using an anti Akt antibody, anti eNOS antibody, and anti 42/44 antibody (all of them; cell signaling).

[4] = system: LLC tumor; experiment: Co-administration of anti-Ang2 antibody and cisplatin in LLC lung cancer animal model; type: in vivo, mouse; conditions: LLC mice; antibody 10 mg/kg i.p. every three days, five times; cisplatin 3 mg/kg i.p. once; control Fc of IgG1
Description: The synergistic effect of co-treatment of antibody 10D6 and cisplatin was examined.
In particular, referring to Example 14, LLC tumor cells were subcutaneously injected into mice. When the size of tumors reached 50˜100 mm^3, anti-Ang2 antibody 10D6 was injected at the concentration of 10 mg/kg via an intraperitoneal injection every three days a total of five times. After administering antibody 10D6 twice, 3 mg/kg of cisplatin (Sigma-Aldrich) was intraperitoneally injected once. The size of tumor (V) was calculated using the following formula: Volume (V)=(width)2×length/2
For comparison, the same experiment was performed to a control group treated with Fc of IgG1 and a comparative group treated with antibody 4H10.
In addition, an experiment was performed to examine whether the synergistic effect obtained by co-administration of 10D6 and cisplatin as described above is due to the increased transporting efficiency of the administered cisplatin induced by the vascular normalization by treatment of 10D6. Cisplatin binds to DNA in a living body and induces crosslinking, thereby inducing cell death. Rat monoclonal anti-Cisplatin modified DNA (CP9/19) antibody (1:200, Abcam), which is capable of binding to DNA modified by cisplatin in tumor frozen sections, and hamster anti-CD31 antibody (1:200, Millipore), were used for immunofluorescence staining, and fluorescence images were obtained using LSM5 confocal microscope (Zeiss). In addition, to examine necrotic region, the tumor frozen sections were stained with H&E according to standard protocol, and then, Eosin+ cell region in tumor was observed. The obtained results are illustrated in FIG. 18C.

B1: 10D6: mouse anti-Ang2 monoclonal antibody from hybridoma KCLRF-BP-00295; heavy chain variable region SEQ ID NO: 7, light chain variable region SEQ ID NO: 9 (antibody, V domains shown)
VH: DVQLQESGPGLVKPSQSLSLTCTVTGYSITSDYAWNWIRQFPGNKLEWMGYINYSGNTDYNPSLKSRSSITRDTSKNQFFLQLNSVTTGDTATYYCARGNFEGAMDYWGQGTSVTVSS
VL: SIVMTQTPKFLLVSAGDRVTITCKASQSVSNDVAWYQQKPGQSPKLLIYYASNRYPGVPDRFTGSGYGTDFTFTISTVQAEDLAVYFCQQDYSSPWTFGGGTKLEIK
modifications: Synthetic (Heavy chain variable region of an anti-Ang2 antibody); Synthetic (Light chain variable region of anti-Ang2 antibody)
In the case of B1, the “time from which internalization of the Tie2 receptor started” value ([1]; 2 ug/ml Ang2 and 10 ug/ml antibody) is reported as 30 min, the “location of internalized Tie2 and antibody” value ([1]; anti-EEA1 antibody dye) is reported as “located in an early endosome” and the “growth of vascular endothelial cells (BrdU)” value [2] is reported as “increased”. For the same molecule, the “downstream signaling (phosphorylation of Akt, eNOS, 42/44) compared to Ang2 sole-treatment and Ang2 + RG antibody” value ([3]; 60 nM 10D6 + 40 nM Ang2, or Ang1 4 nM alone, 30 min) was “strongly induced”, the “downstream signaling effects relative to Ang1 sole-treatment group” value ([3]; 60 nM 10D6 + 40 nM Ang2 vs Ang1 4 nM) was “at least equal to those in the Ang1 sole-treatment group” and the “tumor size decreased by, compared to the control” value [4] was 38.5%.
